Assay [1] has as its target T1, human receptor tyrosine kinase like orphan receptor 1 (ROR1) (human, UniProt Q01973 30-937). Briefly: cell-based or functional assay.
The target in assay [2] is T1, human receptor tyrosine kinase like …. Put plainly: binding to Jeko cells; column 'ADC-M Binding KD (nM)', method not described.
Assay [3] shares this target. Briefly: binding to Jeko cells; column 'ADC-L Binding KD (nM)', method not described.
Assay [4] has the same target. Put plainly: flow cytometry on Jeko-1 cells (FIG. 3A). For orientation: Flow cytometry measures light scatter and fluorescence of single cells or particles in a stream.
The target is the same in assay [5]. Briefly: flow cytometry on MDA-MB-231 cells, PE anti-human IgG secondary, % maximal binding.
Assay [6] shares this target. Briefly: flow cytometry on Jeko-1 cells (FIG. 3B).
Assay [7] has the same target. Briefly: flow cytometry on Jeko-1 cells, PE anti-human IgG secondary, % maximal binding.
Assay [8] has the same target. Put plainly: binding to Jeko cells; column 'ADC-P Binding KD (nM)', method not described.

Broadly, the Kd is the equilibrium constant for the complex coming apart. A high value points to lower affinity. Usually EC50 stands for the concentration at which the effect is half-maximal. Low values mean greater potency, high ones weaker potency.

T1 sequence (Q01973 30-937): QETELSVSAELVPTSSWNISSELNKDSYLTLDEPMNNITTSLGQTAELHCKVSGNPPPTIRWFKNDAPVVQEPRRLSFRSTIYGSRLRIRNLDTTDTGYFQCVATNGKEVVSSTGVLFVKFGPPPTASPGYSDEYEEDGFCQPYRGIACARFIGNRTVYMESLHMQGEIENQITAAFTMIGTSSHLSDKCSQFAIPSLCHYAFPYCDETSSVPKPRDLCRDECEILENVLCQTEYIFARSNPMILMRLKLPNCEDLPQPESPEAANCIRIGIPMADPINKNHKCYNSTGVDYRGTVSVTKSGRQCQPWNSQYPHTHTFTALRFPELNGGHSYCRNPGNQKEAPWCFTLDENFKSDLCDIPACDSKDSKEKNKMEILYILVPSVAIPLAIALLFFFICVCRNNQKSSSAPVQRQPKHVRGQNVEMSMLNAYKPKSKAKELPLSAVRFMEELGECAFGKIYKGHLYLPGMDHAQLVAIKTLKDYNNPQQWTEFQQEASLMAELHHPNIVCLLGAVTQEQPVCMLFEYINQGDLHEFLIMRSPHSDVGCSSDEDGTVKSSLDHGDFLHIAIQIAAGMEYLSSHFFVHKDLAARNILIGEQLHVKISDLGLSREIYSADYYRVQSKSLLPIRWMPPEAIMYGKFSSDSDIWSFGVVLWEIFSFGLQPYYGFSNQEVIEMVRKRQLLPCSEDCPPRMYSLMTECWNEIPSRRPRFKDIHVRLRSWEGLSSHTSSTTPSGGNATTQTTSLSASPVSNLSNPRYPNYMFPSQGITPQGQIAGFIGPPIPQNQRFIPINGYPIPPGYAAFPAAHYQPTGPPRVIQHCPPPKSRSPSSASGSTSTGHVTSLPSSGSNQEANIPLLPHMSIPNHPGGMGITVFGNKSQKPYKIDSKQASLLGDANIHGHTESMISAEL

B1: ADC-E (antibody, human IgG1, kappa, V domains shown)
VH: QVQLQESGPGLVKPSQTLSLTCTVSGYAFTAYNIHWVRQAPGQGLEWMGSFDPYDGGSSYNQKFKDRLTISKDTSKNQVVLTMTNMDPVDTATYYCARGWYYFDYWGHGTLVTVSS
VL: DIVMTQTPLSLPVTPGEPASISCRASKSISKYLAWYQQKPGQAPRLLIYSGSTLQSGIPPRFSGSGYGTDFTLTINNIESEDAAYYFCQQHDESPYTFGEGTKVEIKR
modifications: SC-VC-PAB-MMAE bonded via lysine residues of the antibody (chain and positions not stated)
Regarding B1, in assay [1], the “IC50, cell viability (CellTiter-Glo, 72 h), Bt549 cells” value (shortened to “IC50, cell viability … Bt549 cells”) was 74.4 nM; the “IC50, cell viability (CellTiter-Glo, 72 h), DOHH2 cells” value (from here on “IC50, cell viability … DOHH2 cells”) turned out to be 89.6 nM; the “IC50, cell viability (CellTiter-Glo, 72 h), HBL-1 cells” value (“IC50, cell viability … HBL-1 cells” for short) is 147 nM; the “IC50, cell viability (CellTiter-Glo, 72 h), JHOM1 cells” value (“IC50, cell viability … JHOM1 cells” for short) stood at 32.9 nM. For the same molecule, in assay [1], the “IC50, cell viability (CellTiter-Glo, 72 h), MDA-MB-468 cells” value (“IC50, cell viability … MDA-MB-468 cells” for short) was 80.1 nM; the “IC50, cell viability (CellTiter-Glo, 72 h), SKOvr3 cells” value (from here on “IC50, cell viability … SKOvr3 cells”) stood at 201 nM; the “IC50, cell viability (CellTiter-Glo, 72 h), TMD-8 cells” value (from here on “IC50, cell viability … TMD-8 cells”) turned out to be 94.3 nM; the “IC50, cell viability (CellTiter-Glo, 72 h), TOV112D cells” value (“IC50, cell viability … TOV112D cells” for short) came to 57.8 nM.

B2: ADC-M (antibody, human IgG1, kappa, V domains shown)
VH: QVQLQESGPGLVKPSQTLSLTCTVSGYAFTAYNIHWVRQAPGQGLEWMGSFDPYDGGSSYNQKFKDRLTISKDTSKNQVVLTMTNMDPVDTATYYCARGWYYFDYWGHGTLVTVSS
VL: DIVMTQTPLSLPVTPGEPASISCRASKSISKYLAWYQQKPGQAPRLLIYSGSTLQSGIPPRFSGSGYGTDFTLTINNIESEDAAYYFCQQHDESPYTFGEGTKVEIKR
modifications: MAL-Phe-C4-VC-PAB-MMAE bonded via cysteine residues of the antibody (chain and positions not stated)
notes: Antibody-drug conjugate of Ab1; also called Ab1-MAL-Phe-C4-VC-PAB-MMAE
With B2, the Kd in assay [2] is 0.12 nM.

B3: ADC-B (antibody, human IgG1, kappa, V domains shown)
VH: QVQLQESGPGLVKPSQTLSLTCTVSGYAFTAYNIHWVRQAPGQGLEWMGSFDPYDGGSSYNQKFKDRLTISKDTSKNQVVLTMTNMDPVDTATYYCARGWYYFDYWGHGTLVTVSS
VL: DIVMTQTPLSLPVTPGEPASISCRASKSISKYLAWYQQKPGQAPRLLIYSGSTLQSGIPPRFSGSGYGTDFTLTINNIESEDAAYYFCQQHDESPYTFGEGTKVEIKR
modifications: SMCC-DM1 bonded via lysine residues of the antibody (chain and positions not stated); SMCC-DM1 bonded via lysine residues of the antibody (chain and positions not stated); DAR 3.0 to 3.20
Consider B3, for which, in assay [1], the “IC50, cell viability (CellTiter-Glo, 72 h), A2008 cells” value turned out to be 49 nM; the “IC50, cell viability … Bt549 cells” value amounted to 20.2 nM; the “IC50, cell viability … DOHH2 cells” value came out at 78.3 nM; the “IC50, cell viability … HBL-1 cells” value was determined as 70.1 nM. Moreover, in assay [1], the “IC50, cell viability (CellTiter-Glo, 72 h), HCC1187 cells” value amounted to 6.2 nM; the “IC50, cell viability … JHOM1 cells” value worked out at 24.3 nM; the “IC50, cell viability … MDA-MB-468 cells” value worked out at 18.8 nM; the “IC50, cell viability … SKOvr3 cells” value is 78.7 nM. In addition, in assay [1], the “IC50, cell viability … TMD-8 cells” value came out at 50 nM and the “IC50, cell viability … TOV112D cells” value was 34.2 nM.

B4: ADC-L (antibody, human IgG1, kappa, V domains shown)
VH: QVQLQESGPGLVKPSQTLSLTCTVSGYAFTAYNIHWVRQAPGQGLEWMGSFDPYDGGSSYNQKFKDRLTISKDTSKNQVVLTMTNMDPVDTATYYCARGWYYFDYWGHGTLVTVSS
VL: DIVMTQTPLSLPVTPGEPASISCRASKSISKYLAWYQQKPGQAPRLLIYSGSTLQSGIPPRFSGSGYGTDFTLTINNIESEDAAYYFCQQHDESPYTFGEGTKVEIKR
modifications: MAL-DPR-VC-PAB-MMAE bonded via cysteine residues of the antibody (chain and positions not stated)
notes: Antibody-drug conjugate of Ab1; also called Ab1-MAL-DPR-VC-PAB-MMAE
The molecule B4 had a Kd in assay [3] of 0.15 nM.

B5: ADC-F (antibody, human IgG1, kappa, V domains shown)
VH: QVQLQESGPGLVKPSQTLSLTCTVSGYAFTAYNIHWVRQAPGQGLEWMGSFDPYDGGSSYNQKFKDRLTISKDTSKNQVVLTMTNMDPVDTATYYCARGWYYFDYWGHGTLVTVSS
VL: DIVMTQTPLSLPVTPGEPASISCRASKSISKYLAWYQQKPGQAPRLLIYSGSTLQSGIPPRFSGSGYGTDFTLTINNIESEDAAYYFCQQHDESPYTFGEGTKVEIKR
modifications: SC-VC-PAB-DM1 bonded via lysine residues of the antibody (chain and positions not stated)
Turning to B5, in assay [1], the “IC50, cell viability (CellTiter-Glo, 72 h), A2008 cells” value is > 1000 nM; the “IC50, cell viability … Bt549 cells” value was > 1000 nM; the “IC50, cell viability … DOHH2 cells” value is > 1000 nM; the “IC50, cell viability … HBL-1 cells” value is > 1000 nM. Further, in assay [1], the “IC50, cell viability (CellTiter-Glo, 72 h), HCC1187 cells” value is > 1000 nM; the “IC50, cell viability … JHOM1 cells” value was > 1000 nM; the “IC50, cell viability … MDA-MB-468 cells” value was > 1000 nM; the “IC50, cell viability … SKOvr3 cells” value was > 1000 nM. In assay [1], the “IC50, cell viability … TMD-8 cells” value is > 1000 nM and the “IC50, cell viability … TOV112D cells” value was > 1000 nM.

B6: Ab1 (antibody, human IgG1, kappa, V domains shown)
VH: QVQLQESGPGLVKPSQTLSLTCTVSGYAFTAYNIHWVRQAPGQGLEWMGSFDPYDGGSSYNQKFKDRLTISKDTSKNQVVLTMTNMDPVDTATYYCARGWYYFDYWGHGTLVTVSS
VL: DIVMTQTPLSLPVTPGEPASISCRASKSISKYLAWYQQKPGQAPRLLIYSGSTLQSGIPPRFSGSGYGTDFTLTINNIESEDAAYYFCQQHDESPYTFGEGTKVEIKR
notes: also called unconjugated Ab1; parental antibody Ab1
For the molecule B6, the EC50 came out at 0.0164 µg/mL in assay [4], 0.0328 µg/mL in assay [5], 0.0165 µg/mL in assay [6] and 0.0136 µg/mL in assay [7].

B7: ADC-P (antibody, human IgG1, kappa, V domains shown)
VH: QVQLQESGPGLVKPSQTLSLTCTVSGYAFTAYNIHWVRQAPGQGLEWMGSFDPYDGGSSYNQKFKDRLTISKDTSKNQVVLTMTNMDPVDTATYYCARGWYYFDYWGHGTLVTVSS
VL: DIVMTQTPLSLPVTPGEPASISCRASKSISKYLAWYQQKPGQAPRLLIYSGSTLQSGIPPRFSGSGYGTDFTLTINNIESEDAAYYFCQQHDESPYTFGEGTKVEIKR
modifications: MAL-Phe-C4-VC-PAB-DMEA-PNU-159682 bonded via cysteine residues of the antibody (chain and positions not stated)
notes: Antibody-drug conjugate of Ab1; also called Ab1-MAL-Phe-C4-VC-PAB-DMEA-PNU-159682
Take B7: in assay [8], binding was characterised by a dissociation constant (Kd) of 0.11 nM.

For the origin of these results see patent publication USRE50631 (VELOSBIO, dated 2025).
